{
  "source": "patent US20230192808A1",
  "about": "(REGENTS OF THE UNIVERSITY OF COLORADO A BODY CORPORATE, published 2023)",
  "binders": {"B1": {"name": "RASGRP2 78-87 peptide (peptide)", "peptide": "LVRYWISAFP", "modifications": "also: biotinylated, site not given here", "notes": "also called RASDRP2"}, "B2": {"name": "Hybrid Insulin Peptide HIP11-C peptide (peptide)", "peptide": "{Biotin-PEGS}-SLQPLALEAEDLQV", "modifications": "reading uncertain"}, "B3": {"name": "AQP4-6 peptide (peptide, UniProt P55087 285-299, looked up)", "peptide": "SQVETDDLILKPGVV", "modifications": "also: biotinylated, site not given here", "notes": "also called aquaporin 4 peptide 6"}, "B4": {"name": "AQP4-5 peptide (peptide, UniProt P55087 284-298, looked up)", "peptide": "RSQVETDDLILKPGV", "modifications": "also: biotinylated, site not given here", "notes": "also called aquaporin 4 peptide 5"}, "B5": {"name": "Hybrid Insulin Peptide HIP6-IAPP2 (peptide)", "peptide": "{Biotin-PEGS}-GQVELGGGNAVEVLK", "modifications": "reading uncertain"}, "B6": {"name": "GAD65^265-281 peptide (peptide)", "peptide": "AMMIARFKMFPEVKEKG", "modifications": "also: biotinylated, site not given here"}, "B7": {"name": "Hybrid Insulin Peptide HIP8-NPY (peptide)", "peptide": "{Biotin-PEGS}-GQVELGGGSSPETLI", "modifications": "reading uncertain", "notes": "also called HIP9; HIP9-NPY"}, "B8": {"name": "Hybrid Insulin Peptide HIP1-WE14 (peptide)", "peptide": "{Biotin-PEGS}-GQVELGGWSKMDQLA", "modifications": "reading uncertain"}, "B9": {"name": "MBP^146-170 peptide (peptide)", "peptide": "AQGTLSKIFKLGGRDSRSGSPMARR", "modifications": "also: biotinylated, site not given here"}, "B10": {"name": "MOG^97-109 peptide (peptide)", "peptide": "FFRDHSYQEEA", "modifications": "also: biotinylated, site not given here"}, "B11": {"name": "MBP^83-101 peptide (peptide)", "peptide": "ENPVVHFFKNIVTPRTPPP", "modifications": "also: biotinylated, site not given here"}, "B12": {"name": "Insulin Mimotope peptide (peptide)", "peptide": "HLVEELYLVAGEEG", "modifications": "also: biotinylated, site not given here"}},
  "key": {"HLA-DRB1*15:01": {"molecular_target": "T1, HLA-DRB1*15:01 (human, UniProt P01903 26-216; P01911 30-227, limits assumed)", "T1 construct": "whole, on cells; HLA class II molecule expressed on class II negative T2 cells that carry DRA1*01:01", "experiment": "flow cytometry, biotinylated peptide on HLA-expressing T2 cells, streptavidin-PE"}, "HLA-DRB1*04:01": {"molecular_target": "T2, HLA-DRB1*04:01 (human, UniProt P01903 26-216; P01911 30-227, limits assumed)", "T2 construct": "whole, on cells; on T2 cells; also called DR4", "T2 MHC II alpha": "not shown", "T2 MHC II beta": "not shown", "experiment": "flow cytometry, biotinylated peptide on HLA-expressing T2 cells, streptavidin-PE"}, "[1]": {"molecular_target": "T3, HLA-DQ2 A57D (DQA1*05:01/DQB1*02:01 A57D) (human, UniProt P01909 24-254; P01920 33-261)", "T3 construct": "A57D variant of the DQB1 chain, cloned into T2 cells", "T3 alpha": "not shown", "T3 beta": "not shown", "experiment": "flow cytometry, biotinylated peptide titrated on HLA-expressing T2 cells, streptavidin-PE"}, "[2]": {"molecular_target": "T4, HLA-DQ8 (DQA1*03:01/DQB1*03:02) (human, UniProt P01909 24-216; P01920 33-230, limits assumed)", "T4 construct": "whole, on cells; on T2 cells", "T4 MHC II alpha": "not shown", "T4 MHC II beta": "not shown", "experiment": "flow cytometry, biotinylated peptide titrated on HLA-expressing T2 cells, streptavidin-PE"}, "[3]": {"molecular_target": "T5, HLA-DQ2 trans (DQA1*03:01/DQB1*02:01) (human, UniProt P01909 24-216, limits assumed)", "T5 construct": "whole, on cells; on T2 cells", "T5 MHC II alpha": "not shown", "T5 MHC II beta": "not shown", "experiment": "flow cytometry, biotinylated peptide titrated on HLA-expressing T2 cells, streptavidin-PE"}, "HLA-DRB1*04:01 G86L": {"molecular_target": "T6, HLA-DRB1*04:01 G86L (human)", "T6 construct": "pocket 1 variant on T2 cells", "experiment": "flow cytometry, biotinylated peptide on HLA-expressing T2 cells, streptavidin-PE"}, "HLA-DRB1*07:01": {"molecular_target": "T7, HLA-DRB1*07:01 (human)", "T7 construct": "whole, on cells; on T2 cells by the general method; the making of this line is not described on its own; also called resistant allele (NMO)", "experiment": "flow cytometry, biotinylated peptide on HLA-expressing T2 cells, streptavidin-PE"}, "[4]": {"molecular_target": "T8, HLA-DQ2 (DQA1*05:01/DQB1*02:01) (human, UniProt P01909 24-216, limits assumed)", "T8 construct": "whole, on cells; on T2 cells", "experiment": "flow cytometry, biotinylated peptide titrated on HLA-expressing T2 cells, streptavidin-PE"}, "HLA-DRB1*15:01 V86G": {"molecular_target": "T9, HLA-DRB1*15:01 V86G (human)", "T9 construct": "engineered allele on T2 cells", "experiment": "flow cytometry, biotinylated peptide on HLA-expressing T2 cells, streptavidin-PE"}, "HLA-DRB1*15:01 F47Y": {"molecular_target": "T10, HLA-DRB1*15:01 F47Y (human)", "T10 construct": "engineered allele on T2 cells", "experiment": "flow cytometry, biotinylated peptide on HLA-expressing T2 cells, streptavidin-PE"}, "HLA-DRB1*15:01 A71R": {"molecular_target": "T11, HLA-DRB1*15:01 A71R (human)", "T11 construct": "engineered allele on T2 cells", "experiment": "flow cytometry, biotinylated peptide on HLA-expressing T2 cells, streptavidin-PE"}},
  "note": "Where no end group is shown, it is not given here. The star is where a group is joined. Biotin = O=C1N[C@H]2[C@H](CS[C@H]2CCCCC(=O)*)N1; PEGS = not defined here",
  "data": [
    {"binder": "B1", "values": [
      {"measurement": "binding result", "setting": "HLA-DRB1*15:01", "value": "binds"},
      {"measurement": "binding result", "setting": "HLA-DRB1*04:01", "value": "binds"}
    ]},
    {"binder": "B2", "values": [
      {"measurement": "binding result", "setting": "[1]", "value": "binds"},
      {"measurement": "binding result", "setting": "[2]", "value": "no binding"},
      {"measurement": "binding result", "setting": "[3]", "value": "binds"},
      {"measurement": "binding result", "setting": "HLA-DRB1*04:01 G86L", "value": "no binding (tested: 100 uM)"},
      {"measurement": "binding result", "setting": "HLA-DRB1*04:01", "value": "no binding (tested: 100 uM)"}
    ]},
    {"binder": "B3", "values": [
      {"measurement": "binding result", "setting": "HLA-DRB1*07:01", "value": "no binding (tested: 100 µM (general method))"}
    ]},
    {"binder": "B4", "values": [
      {"measurement": "binding result", "setting": "HLA-DRB1*07:01", "value": "no binding (tested: 100 µM (general method))"}
    ]},
    {"binder": "B5", "values": [
      {"measurement": "binding result", "setting": "HLA-DRB1*04:01 G86L", "value": "no binding (tested: 100 uM)"},
      {"measurement": "binding result", "setting": "HLA-DRB1*04:01", "value": "no binding (tested: 100 uM)"}
    ]},
    {"binder": "B6", "values": [
      {"measurement": "binding result", "setting": "HLA-DRB1*04:01 G86L", "value": "no binding (tested: 100 uM)"}
    ]},
    {"binder": "B7", "values": [
      {"measurement": "binding result", "setting": "[1]", "value": "binds"},
      {"measurement": "binding result", "setting": "[4]", "value": "no binding"},
      {"measurement": "binding result", "setting": "[3]", "value": "binds"},
      {"measurement": "binding result", "setting": "HLA-DRB1*04:01 G86L", "value": "no binding (tested: 100 uM)"},
      {"measurement": "binding result", "setting": "HLA-DRB1*04:01", "value": "no binding (tested: 100 uM)"}
    ]},
    {"binder": "B8", "values": [
      {"measurement": "binding result", "setting": "HLA-DRB1*04:01 G86L", "value": "no binding (tested: 100 uM)"},
      {"measurement": "binding result", "setting": "HLA-DRB1*04:01", "value": "no binding (tested: 100 uM)"}
    ]},
    {"binder": "B9", "values": [
      {"measurement": "binding result", "setting": "HLA-DRB1*04:01 G86L", "value": "binds"},
      {"measurement": "binding result", "setting": "HLA-DRB1*15:01", "value": "no binding (tested: 100 µM (general method))"},
      {"measurement": "binding result", "setting": "HLA-DRB1*15:01 V86G", "value": "binds"},
      {"measurement": "binding result", "setting": "HLA-DRB1*15:01 F47Y", "value": "binds"},
      {"measurement": "binding result", "setting": "HLA-DRB1*15:01 A71R", "value": "binds"}
    ]},
    {"binder": "B10", "values": [
      {"measurement": "binding result", "setting": "HLA-DRB1*04:01 G86L", "value": "no binding (tested: 100 uM)"}
    ]},
    {"binder": "B11", "values": [
      {"measurement": "binding result", "setting": "HLA-DRB1*04:01 G86L", "value": "binds"},
      {"measurement": "binding result", "setting": "HLA-DRB1*15:01", "value": "binds"}
    ]},
    {"binder": "B12", "values": [
      {"measurement": "binding result", "setting": "[1]", "value": "binds"},
      {"measurement": "binding result", "setting": "[2]", "value": "binds"},
      {"measurement": "binding result", "setting": "[4]", "value": "no binding"},
      {"measurement": "binding result", "setting": "[3]", "value": "binds"},
      {"measurement": "binding result", "setting": "HLA-DRB1*04:01", "value": "binds"}
    ]}
  ]
}
